assay: soluble on expression in E. coli; label from the status in PepcDB or PDB records

| Sequence | soluble on expression in E. coli |
| --- | --- |
| MDYQTFEKVNKFINVKAYIFFLTQELKQQYKLSLKELLILAYFYYKNEHSISLKEIIGDILYKQSDVVKNIKSLSKKGFINKSRNEADERRIFVSVTPIQRKKIACVINELDKIIKGFNKERDYIKYQWAPKYSKEFFILFMNIMYSKDFLKYRFNLTFLDLSILYVISSRKNEILNLKDLFESIRFMYPQIVRSVNRLNNKGMLIKERSLADERIVLIKINKIQYNTIKSIFTDTSKILKPRKFFF | not soluble |
| MDADMDYERPNVETIKCVVVGDNAVGKTRLICARACNTTLTQYQLLATHVPTVWAIDQYRVCQEVLERSRDVVDEVSVSLRLWDTFGDHHKDRRFAYGRSDVVVLCFSIANPNSLNHVKSMWYPEIKHFCPRTPVILVGCQLDLRYADLEAVNRARRPLARPIKRGDILPPEKGREVAKELGLPYYETSVFDQFGIKDVFDNAIRAALISRRHLQFWKSHLKKVQKPLLQAPFLPPKAPPPVIKIPECPSMGTNEAACLLDNPLCADVLFILQDQEHIFAHRIYLATSSSKFYDLFLMECEESPNGSEGACEKEKQSRDFQGRILSVDPEEEREEGPPRIPQADQWKSSNKSLVEALGLEAEGAVPETQTLTGWSKGFIGMHREMQVNPISKRMGPMTVVRMDASVQPGPFRTLLQFLYTGQLDEKEKDLVGLAQIAEVLEMFDLRMMVENIMNKEAFMNQEITKAFHVRKANRIKECLSKGTFSDVTFKLDDGAISAHKPLLICSCEWMAAMFGGSFVESANSEVYLPNINKISMQAVLDYLYTKQLSPNLDLDPLELIALANRFCLPHLVALAEQHAVQELTKAATSGVGIDGEVLSYLELAQFHNAHQLAAWCLHHICTNYNSVCSKFRKEIKSKSADNQEYFERHRWPPVWYLKEEDHYQRVKREREKEDIALNKHRSRRKWCFWNSSPAVA | soluble |
| MGSDKIHHHHHHMLTCNGSKTFQTFIKAVTDLINSNLLEDQMVCGIEKLLEELLEKKTWLPLEKQKANSAQYARHLLYEDPLNRFEVLALVWKDGQSTPLHDHDGTWGVEGVFTGRIMVQNFIQTKQLENSLVYLTHTGNLYLGEGETDKVIPPADCHILEIDDNESVVTIHVYGKRLEKFKVYVPTKEKNVYTCETKYIRYNS | not soluble |
| MGSDKIHHHHHHMESKSAVQLYLELLKKTILFEIWLEYEAYLPASLHISKELEFEPVTVPLPLFIKQYAENHNLKIVKPNVSKSERHDGMDWPRAAHSMIGRERMNQLQEAMETVVRENIEGDFIETGVWRGGSCIFMNGFLQANNITDRNVWVADSFEGLPAPNLEQYPKDYGDYLHTFDYLRVSLEQVQENFKKYDLLNDQVKFLKGWFKDTLPTAPIAAIAIARLDGDMYESTMDGLVNLYDKVSKGGYIIIDDYGLPPCAEAVTDFRNHRNLKAPITKIDVFGVYWRKE | not soluble |
| MGSDKIHHHHHHMSKVFIIGLPRTGTTSISVALLEMGLSVAHTAFTKKAFEMADAVTDAPCFSDYMHLDRIFPHAKFIYLTREMAKWVPSIIMLLEKMAPHLDPKTGKFNPILKRSFHHTFPGTLPLTENELIDCYTRHEQAVLSYFEGRDDFLSIDISKQGSLLEMKMFLGIEAQGSADFPKLNVGRDVASWKDYKHPNKINSNLAGVEHRKYYDYALVDYRTY | not soluble |
| MTVVDAHLHVWDPEQAAYEWLGPAMAPVDRAMRFHDALPALRTAGVGAAVLVQAADNDEDTDLMLATAARHPEVVGVVAWVPLDDPGRARARLAALRRDPHVVGVRTLLHERSDPDWVLGPDADAGLALLAEAGLPFDYSTTSPAALRHLAELSARHPALRLVVDHLGKPPVGGGREDRAEWHRLIAAAAKHPGVHAKLSGLYSASGALDAWTTDEVRPFVEDALELFGPERLMYGGDWPISLLAGGYARTWEAMCELLAPLAPDDRAAVLGGTATRFYRLDPALLNTAHHAAVLEHHHHHH | not soluble |
| MGHHHHHHSHLPGNTRKMDKTTVLEKVIGFLQKHNEVSAQTEICDIQQDWKPSFLSNEEFTQLMLEALDGFIIAVTTDGSIIYVSDSITPLLGHLPSDVMDQNLLNFLPEQEHSEVYKILSSHMLVTDSPSP | soluble |
| GEASPVDPLRPVVDASIQPLLKEHRIPGMAVAVLKDGKAHYFNYGVANRESGAGVSEQTLFEIGSVSKTLTATLGAYAVVKGAMQLDDKASRHAPWLKGSAFDSITMGELATYSAGGLPLQFPEEVDSSEKMRAYYRQWAPVYSPGSHRQYSNPSIGLFGHLAASSLKQPFAPLMEQTLLPGLGMHHTYVNVPKQAMASYAYGYSKEDKPIRVNPGMLADEAYGIKTSSADLLRFVKANIGGVDDKALQQAISLTHQGHYSVGGMTQGLGWESYAYPVTEQTLLAGNSAKVILEANPTAAPRESGSQVLFNKTGSTNGFGAYVAFVPARGIGIVMLANRNYPIEARIKAAHAILAQLAG | soluble |
